This passage reports OD value results from patent US20260144882A1 (BIO THERA SOLUTIONS, published 2026).

For this assay, the target named is T1, human Nectin-4 extracellular antigen hNectin-4-His (human, UniProt Q96NY8 32-349).
T1 construct: C-terminal 8xHis tag included
T1 sequence: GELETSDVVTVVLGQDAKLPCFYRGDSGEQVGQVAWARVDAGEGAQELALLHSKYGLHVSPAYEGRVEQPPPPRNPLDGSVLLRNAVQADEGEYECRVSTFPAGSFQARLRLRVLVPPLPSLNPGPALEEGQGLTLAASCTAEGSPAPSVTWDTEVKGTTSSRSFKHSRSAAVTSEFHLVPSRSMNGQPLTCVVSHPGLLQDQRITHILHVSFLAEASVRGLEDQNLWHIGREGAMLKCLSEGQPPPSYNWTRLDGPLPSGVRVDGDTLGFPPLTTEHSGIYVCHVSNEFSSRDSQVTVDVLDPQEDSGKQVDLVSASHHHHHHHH
The experiment in a line: ELISA, phage scFv supernatant 1:50. The procedure: The supernatants were diluted 50-fold, and the binding OD values of the diluted supernatants to hNectin-4-His were measured by ELISA. The samples were serially 3-fold diluted, and the EC₅₀ titer for the binding of the supernatants to the antigen was measured by ELISA. […] The light chain variable region sequence is set forth in SEQ ID NO: 25. The OD value is the measurement of ELISA, and the EC₅₀ value denotes the EC₅₀ value of the binding activity titer of the supernatant to the antigen.

B1: 1F3-2E12 scFv (scFv, V domains shown)
VH: EVQLVESGGGLVQPGGSLRLSCAASGGNFTNSGMSWVRQAPGKGLEWVSGIKWSSDETYYADSVKGRFTISRDNSKNTLYLQMNSLRAEDTAVYYCARAELLAFDVYTASDYWGQGTLVTVSS
VL: DIQMTQSPSSLSASVGDRVTITCRASQGISSYLAWYQQKPGKAPKLLIYAASSLQSGVPSRFSGSGSGTDFTLTISSLQPEDFATYYCQQHYTTPPTFGQGTKVEIKR
notes: phage clone supernatant
B1 gave an OD value of 1.52 OD.

B2: 1G8-2D4 scFv (scFv, V domains shown)
VH: EVQLVESGGGLVQPGGSLRLSCAASGYNFGGYAMSWVRQAPGKGLEWVSRISGTSGNNDYADSVKGRFTISRDNSKNTLYLQMNSLRAEDTAVYYCARQTEDRSYGYDLDYWGQGTLVTVSS
VL: DIQMTQSPSSLSASVGDRVTITCRASQGISSYLAWYQQKPGKAPKLLIYAASSLQSGVPSRFSGSGSGTDFTLTISSLQPEDFATYYCQQHYTTPPTFGQGTKVEIKR
notes: phage clone supernatant
With B2, the OD value amounted to 1.58 OD.

B3: 1G8-1A7 scFv (scFv, V domains shown)
VH: EVQLVESGGGLVQPGGSLRLSCAASGYTFDSYAMSWVRQAPGKGLEWVSRIKTTDDGKSYADSVKGRFTISRDNSKNTLYLQMNSLRAEDTAVYYCARQTEDRSYGYDLDYWGQGTLVTVSS
VL: DIQMTQSPSSLSASVGDRVTITCRASQGISSYLAWYQQKPGKAPKLLIYAASSLQSGVPSRFSGSGSGTDFTLTISSLQPEDFATYYCQQHYTTPPTFGQGTKVEIKR
notes: phage clone supernatant
B3 came in with an OD value of 1.57 OD.

B4: 1G8-1B7 scFv (scFv, V domains shown)
VH: EVQLVESGGGLVQPGGSLRLSCAASGYSFSNYAMSWVRQAPGKGLEWVSRISAWGSTNNYADSVKGRFTISRDNSKNTLYLQMNSLRAEDTAVYYCARQTEDRSYGYDLDYWGQGTLVTVSS
VL: DIQMTQSPSSLSASVGDRVTITCRASQGISSYLAWYQQKPGKAPKLLIYAASSLQSGVPSRFSGSGSGTDFTLTISSLQPEDFATYYCQQHYTTPPTFGQGTKVEIKR
notes: phage clone supernatant
As to B4, the OD value was 1.56 OD.

B5: 1F3-2H6 scFv (scFv, V domains shown)
VH: EVQLVESGGGLVQPGGSLRLSCAASGYTFSSYGMSWVRQAPGKGLEWVSRIKSDGGDTHYADSVKGRFTISRDNSKNTLYLQMNSLRAEDTAVYYCARAELLAFDVYTASDYWGQGTLVTVSS
VL: DIQMTQSPSSLSASVGDRVTITCRASQGISSYLAWYQQKPGKAPKLLIYAASSLQSGVPSRFSGSGSGTDFTLTISSLQPEDFATYYCQQHYTTPPTFGQGTKVEIKR
notes: phage clone supernatant
B5 gave an OD value of 1.31 OD.

B6: 1F3-2G9 scFv (scFv, V domains shown)
VH: EVQLVESGGGLVQPGGSLRLSCAASGFTFGGYGMSWVRQAPGKGLEWVSWISAWDGSIYYADSVKGRFTISRDNSKNTLYLQMNSLRAEDTAVYYCARAELLAFDVYTASDYWGQGTLVTVSS
VL: DIQMTQSPSSLSASVGDRVTITCRASQGISSYLAWYQQKPGKAPKLLIYAASSLQSGVPSRFSGSGSGTDFTLTISSLQPEDFATYYCQQHYTTPPTFGQGTKVEIKR
notes: phage clone supernatant
In turn, B6 came in with an OD value of 1.38 OD.

B7: 1F3-2H12 scFv (scFv, V domains shown)
VH: EVQLVESGGGLVQPGGSLRLSCAASGDSFDSSGMSWVRQAPGKGLEWVSGIKWITGESYYADSVKGRFTISRDNSKNTLYLQMNSLRAEDTAVYYCARAELLAFDVYTASDYWGQGTLVTVSS
VL: DIQMTQSPSSLSASVGDRVTITCRASQGISSYLAWYQQKPGKAPKLLIYAASSLQSGVPSRFSGSGSGTDFTLTISSLQPEDFATYYCQQHYTTPPTFGQGTKVEIKR
notes: phage clone supernatant
For the molecule B7, the OD value was found to be 1.59 OD.

B8: 1G8-1A12 scFv (scFv, V domains shown)
VH: EVQLVESGGGLVQPGGSLRLSCAASGGTFDTNAMSWVRQAPGKGLEWVSAISTGGDNKRYADSVKGRFTISRDNSKNTLYLQMNSLRAEDTAVYYCARQTEDRSYGYDLDYWGQGTLVTVSS
VL: DIQMTQSPSSLSASVGDRVTITCRASQGISSYLAWYQQKPGKAPKLLIYAASSLQSGVPSRFSGSGSGTDFTLTISSLQPEDFATYYCQQHYTTPPTFGQGTKVEIKR
notes: phage clone supernatant
B8 returned an OD value of 1.61 OD.

B9: 1F3-2F3 scFv (scFv, V domains shown)
VH: EVQLVESGGGLVQPGGSLRLSCAASGFNFSDYGMSWVRQAPGKGLEWVSRIDWDGGNTRYADSVKGRFTISRDNSKNTLYLQMNSLRAEDTAVYYCARAELLAFDVYTASDYWGQGTLVTVSS
VL: DIQMTQSPSSLSASVGDRVTITCRASQGISSYLAWYQQKPGKAPKLLIYAASSLQSGVPSRFSGSGSGTDFTLTISSLQPEDFATYYCQQHYTTPPTFGQGTKVEIKR
notes: phage clone supernatant
In the case of B9, the OD value is 1.57 OD.

B10: 1G8-1C1 scFv (scFv, V domains shown)
VH: EVQLVESGGGLVQPGGSLRLSCAASGYIFSNYAMSWVRQAPGKGLEWVSRISTGFAGPDYADSVKGRFTISRDNSKNTLYLQMNSLRAEDTAVYYCARQTEDRSYGYDLDYWGQGTLVTVSS
VL: DIQMTQSPSSLSASVGDRVTITCRASQGISSYLAWYQQKPGKAPKLLIYAASSLQSGVPSRFSGSGSGTDFTLTISSLQPEDFATYYCQQHYTTPPTFGQGTKVEIKR
notes: phage clone supernatant
As to B10, the OD value amounted to 1.5 OD.

B11: 1F3-2F1 scFv (scFv, V domains shown)
VH: EVQLVESGGGLVQPGGSLRLSCAASGDIFTGYSMSWVRQAPGKGLEWVSGIYQTGSNTRYADSVKGRFTISRDNSKNTLYLQMNSLRAEDTAVYYCARAELLAFDVYTASDYWGQGTLVTVSS
VL: DIQMTQSPSSLSASVGDRVTITCRASQGISSYLAWYQQKPGKAPKLLIYAASSLQSGVPSRFSGSGSGTDFTLTISSLQPEDFATYYCQQHYTTPPTFGQGTKVEIKR
notes: phage clone supernatant
B11 had an OD value of 1.02 OD.

B12: 1F3-2F6 scFv (scFv, V domains shown)
VH: EVQLVESGGGLVQPGGSLRLSCAASGFTFSDYGMSWVRQAPGKGLEWVSRISQYGGGIRYADSVKGRFTISRDNSKNTLYLQMNSLRAEDTAVYYCARAELLAFDVYTASDYWGQGTLVTVSS
VL: DIQMTQSPSSLSASVGDRVTITCRASQGISSYLAWYQQKPGKAPKLLIYAASSLQSGVPSRFSGSGSGTDFTLTISSLQPEDFATYYCQQHYTTPPTFGQGTKVEIKR
notes: phage clone supernatant
Molecule B12 registered an OD value of 1.52 OD.

B13: 1F3-2G10 scFv (scFv, V domains shown)
VH: EVQLVESGGGLVQPGGSLRLSCAASGFNFSNYGMSWVRQAPGKGLEWVSRIKPTDGSTHYADSVKGRFTISRDNSKNTLYLQMNSLRAEDTAVYYCARAELLAFDVYTASDYWGQGTLVTVSS
VL: DIQMTQSPSSLSASVGDRVTITCRASQGISSYLAWYQQKPGKAPKLLIYAASSLQSGVPSRFSGSGSGTDFTLTISSLQPEDFATYYCQQHYTTPPTFGQGTKVEIKR
notes: phage clone supernatant
Consider B13, for which the OD value amounted to 1.54 OD.

B14: 1G8-1A3 scFv (scFv, V domains shown)
VH: EVQLVESGGGLVQPGGSLRLSCAASGYNFGSYAMSWVRQAPGKGLEWVSRIYPGSWSPDYADSVKGRFTISRDNSKNTLYLQMNSLRAEDTAVYYCARQTEDRSYGYDLDYWGQGTLVTVSS
VL: DIQMTQSPSSLSASVGDRVTITCRASQGISSYLAWYQQKPGKAPKLLIYAASSLQSGVPSRFSGSGSGTDFTLTISSLQPEDFATYYCQQHYTTPPTFGQGTKVEIKR
notes: phage clone supernatant
For the molecule B14, the OD value was found to be 1.62 OD.

B15: 1G8-1B11 scFv (scFv, V domains shown)
VH: EVQLVESGGGLVQPGGSLRLSCAASGYNFSNYAMSWVRQAPGKGLEWVSAIDASGGDTRYADSVKGRFTISRDNSKNTLYLQMNSLRAEDTAVYYCARQTEDRSYGYDLDYWGQGTLVTVSS
VL: DIQMTQSPSSLSASVGDRVTITCRASQGISSYLAWYQQKPGKAPKLLIYAASSLQSGVPSRFSGSGSGTDFTLTISSLQPEDFATYYCQQHYTTPPTFGQGTKVEIKR
notes: phage clone supernatant
For the molecule B15, the OD value is 1.58 OD.
